Data from publication PMC4822050, “Hemi-methylated DNA opens a closed conformation of UHRF1 to facilitate its histone recognition” (Nature Communications, 2016).

T1: TTD (residues 134–285) of UHRF1 (Homo sapiens, UniProt Q96T88)
T1 construct: TTD (residues 134–285); GST (N, cleaved yes); made in house; host or cells: E. coli BL21 (DE3)
T1 sequence (Q96T88 134-285): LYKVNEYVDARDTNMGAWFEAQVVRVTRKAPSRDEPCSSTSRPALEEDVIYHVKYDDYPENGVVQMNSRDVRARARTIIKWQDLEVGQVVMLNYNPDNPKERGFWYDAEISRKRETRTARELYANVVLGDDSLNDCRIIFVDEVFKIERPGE


What was measured:
[1] = target: T1, TTD (residues 134–285) of UHRF1; assay: ITC, TTD titrated into Spacer variants and other UHRF1 fragments; type: binding; conditions: TTD in syringe
Method: (§1) For competition ITC experiments: the indicated proteins were pre-incubated with competitive peptide, protein or hm-DNA (at 1:2 molar ratio if not specified) for 10 min followed by ITC measurements as described above. Proteins, DNA and peptides were prepared within ITC buffer containing 10 mM HEPES, pH 8.0, 100 mM NaCl. The data were fitted by software Origin 7.0. All ITC results were summarized in Supplementary Table 2 and raw data were shown in Supplementary Fig. 9.

hm-DNA (12 bp) = assay: ITC, hm-DNA titrated into UHRF1 domains; type: binding; conditions: 18 °C, 12-bp hm-DNA in syringe, named protein in cell, 10 mM HEPES pH 8.0, 100 mM NaCl
Method: as §1

RFTS^DNMT1 = assay: ITC, RFTS of DNMT1 with SRA or SRA-Spacer; type: binding; conditions: 18 °C, RFTS^DNMT1 with named protein, 10 mM HEPES pH 8.0, 100 mM NaCl
Method: as §1

FAM-12bp-HM-DNA = assay: Fluorescence polarization, 12-bp FAM-hm-DNA; type: binding; conditions: for Kd: FP
Method: A 6-carboxy-fluorescein (FAM)-labelled primer, 5′-CCATGCGCTGAC-3′, was annealed to a primer 5′-GTCAGXGCATGG-3′ (X=5-methyldeoxycytosine). The hemi-methylated double-strand DNA was used in both electrophoretic mobility-shift assay and FP assays. […] The samples were subjected to a 10% polyacrylamide gel electrophoresis and run in 0.5 × Tris-borate-EDTA buffer at 100 V for 1 h at 4 °C. The results were visualized on Tanon-5200 Chemiluminescent Imaging System (Tanon Science & Technology Co., Ltd).
(§2) FP measurements were performed at 25 °C on Synergy 4 Microplate Reader (BioTek). The 16-bp and 20-bp FAM-labelled hm-DNA (lower strand: 5′-GTGTCAGXGCATGGCC-3′ and 5′-CCGTGTCAGXGCATGGCCAT-3′, respectively. X=5-methyldeoxycytosine) were used in the FP experiment to test the effect of DNA length on the protein/DNA interaction. All experiments were performed in triplicate. The curves were fitted by GraphPad Prism 5. For salt concentration-dependent FP experiments, the reaction buffer contains 50 mM or 150 mM NaCl, respectively.

FAM-16bp-HM-DNA = assay: Fluorescence polarization, 16-bp FAM-hm-DNA; type: binding; conditions: FP, DNA length series
Method: as §2

FAM-20bp-HM-DNA = assay: Fluorescence polarization, 20-bp FAM-hm-DNA; type: binding; conditions: FP, DNA length series
Method: as §2

H3K9me3 peptide (1–17) = assay: ITC, H3K9me3 peptide (1-17) titrated into UHRF1 proteins; type: binding; conditions: ITC KD ratio
Method: as §1

[2] = test system: DAPI foci (pericentromeric heterochromatin) in NIH3T3 cells; assay: Subcellular localization of GFP-tagged UHRF1 in NIH3T3 cells; type: cell-based; conditions: GFP-tagged protein transiently overexpressed in NIH3T3 cells, 36 h after transfection; at least 100 cells counted; repeated three times
Method: NIH3T3 cells were obtained from the Shanghai Institute of Biochemistry and Cell Biology. Wild type and mutants of UHRF1 were sub-cloned into pEGFP-C1 vector. Transient transfections of NIH3T3 cells were carried out using Lipofectamine 2000 (Invitrogen). The NIH3T3 cells were grown on glass coverslips and harvested in 36 h after transfection. The images were acquired and examined as previously described. Briefly, cells were fixed with 4% paraformaldehyde for 25 min, then washed with PBS three times. Coverslips were mounted with Antifade reagent containing DAPI (Molecular Probes) on slides and examined with a confocal microscopy.

[3] = 25 °C, 20 min, 20 mM HEPES pH 7.5, 175 mM NaCl, 8% glycerol, 1 mM DTT, triplicate, Fig. 5b and Supplementary Table 4

| N ([1]; ITC stoichiometry) | ΔH ([1]; ITC) [cal/mol] | ΔS ([1]; ITC) [cal/mol/deg] | Kd (hm-DNA (12 bp)) [nM] | Kd (RFTS^DNMT1) [nM] | Kd (FAM-12bp-HM-DNA; 12-bp hm-DNA, 50 mM NaCl) [nM] | Kd (FAM-12bp-HM-DNA; 12-bp hm-DNA, 150 mM NaCl) [nM] | Kd (FAM-12bp-HM-DNA; [3]) [nM] | Kd (FAM-12bp-HM-DNA; DNA length series, Supplementary Table 5, 12-bp hm-DNA) [nM] | Kd (FAM-12bp-HM-DNA; values as printed in Fig. 5c (Spacer truncation mapping)) [nM] | Kd (FAM-16bp-HM-DNA) [nM] | Kd (FAM-20bp-HM-DNA) [nM] | fold higher binding affinity to H3K9me3 peptide than full-length UHRF1 (H3K9me3 peptide (1–17)) | factor of decrease in hm-DNA-binding affinity compared with full-length UHRF1 (FAM-12bp-HM-DNA; FP KD ratio) | Molecule | percentage of cells showing co-localization with DAPI foci [2] [%] |
| --- | --- | --- | --- | --- | --- | --- | --- | --- | --- | --- | --- | --- | --- | --- | --- |
| 0.788±0.0108 | -1.199E4±224.9 | -13.3 | 1750 | 7090 | 24 ± 3.7 | 580 ± 98 | 490 | 340 ± 90 | 490 | 390 ± 70 | 400 ± 70 | – | – | SRA–Spacer: human UHRF1 residues 414–674 (protein, left off: GST, end not stated, cleaved) PSNHYGPIPGIPVGTMWRFRVQVSESGVHRPHVAGIHGRSNDGAYSLVLAGGYEDDVDHGNFFTYTGSGGRDLSGNKRTAEQSCDQKLTNTNRALALNCFAPINDQEGAEAKDWRSGKPVRVVRNVKGGKNSKYAPAEGNRYDGIYKVVKYWPEKGKSGFLVWRYLLRRDDDEPGPWTKEGKDRIKKLGLTMQYPEGYLEALANREREKENSKREEEEQQEGGFASPRTGKGKWKRKSAGGGPSRAGSPRRTSKKTKVEPY | – |
| – | – | – | – | – | – | – | 4940 ± 1090 | – | – | – | – | four | 14 | UHRF1∆627-674: spacer deletion mutant of UHRF1 (residues 627–674 deleted) (protein, left off: GST, end not stated, cleaved) MWIQVRTMDGRQTHTVDSLSRLTKVEELRRKIQELFHVEPGLQRLFYRGKQMEDGHTLFDYEVRLNDTIQLLVRQSLVLPHSTKERDSELSDTDSGCCLGQSESDKSSTHGEAAAETDSRPADEDMWDETELGLYKVNEYVDARDTNMGAWFEAQVVRVTRKAPSRDEPCSSTSRPALEEDVIYHVKYDDYPENGVVQMNSRDVRARARTIIKWQDLEVGQVVMLNYNPDNPKERGFWYDAEISRKRETRTARELYANVVLGDDSLNDCRIIFVDEVFKIERPGEGSPMVDNPMRRKSGPSCKHCKDDVNRLCRVCACHLCGGRQDPDKQLMCDECDMAFHIYCLDPPLSSVPSEDEWYCPECRNDASEVVLAGERLRESKKKAKMASATSSSQRDWGKGMACVGRTKECTIVPSNHYGPIPGIPVGTMWRFRVQVSESGVHRPHVAGIHGRSNDGAYSLVLAGGYEDDVDHGNFFTYTGSGGRDLSGNKRTAEQSCDQKLTNTNRALALNCFAPINDQEGAEAKDWRSGKPVRVVRNVKGGKNSKYAPAEGNRYDGIYKVVKYWPEKGKSGFLVWRYLLRRDDDEPGPWTKEGKDRIKKLGLTMQYPEGYLEALANREREKENSKSLTAQQSSLIREDKSNAKLWNEVLASLKDRPASGSPFQLFLSKVEETFQCICCQELVFRPITTVCQHNVCKDCLDRSFRAQVFSCPACRYDLGRSYAMQVNQPLQTVLNQLFPGYGNGR | 22.1 |
